# Laboratory results as given in article PMC6555819, “Comprehensive study of nuclear receptor DNA binding provides a revised framework for understanding receptor specificity”.
# Changes are numbered by the printed parent chain.
# B1: NRC3_wobSeed86_DR3_T8G_o1 (dsDNA)
# DNA 1: GCGCTGCGAGGTCAGGTTGGTCAGCTAACGGGTACGGCGATTGACAGCGTAGAATGAAGG
# DNA 2: CCTTCATTCTACGCTGTCAATCGCCGTACCCGTTAGCTGACCAACCTGACCTCGCAGCGC
# B2: NRC3_wobSeed125_DR5_G21T_o1 (dsDNA)
# DNA 1: GCCCTTACGGGTCACTGACATGTTATAGCATTTGGAGCGATTGACAGCGTAGAATGAAGG
# DNA 2: CCTTCATTCTACGCTGTCAATCGCTCCAAATGCTATAACATGTCAGTGACCCGTAAGGGC
# B3: NRC3_wobSeed125_DR5_T6C_o1 (dsDNA)
# DNA 1: B2 DNA 1 with T6C, T21G
# DNA 2: B2 DNA 2 with A40C, A55G
# B4: NRC3_wobSeed144_DR5_T19G_o1 (dsDNA)
# DNA 1: GCTCGAGTAGGTTACCAAGGGGGCATTCAGCTTTCTGCGATTGACAGCGTAGAATGAAGG
# DNA 2: CCTTCATTCTACGCTGTCAATCGCAGAAAGCTGAATGCCCCCTTGGTAACCTACTCGAGC
# B5: NRC3_wobSeed90_DR3_A28C_o1 (dsDNA)
# DNA 1: GCCATACAGGGTCAGCTAGGCCAGAGTCGGGACGGCGCGATTGACAGCGTAGAATGAAGG
# DNA 2: CCTTCATTCTACGCTGTCAATCGCGCCGTCCCGACTCTGGCCTAGCTGACCCTGTATGGC
# B6: NRC3_wobSeed82_DR3_T21G_o1 (dsDNA)
# DNA 1: GCATCGAAAGGTCGACGAGGGGAGTATACACCGTTTGCGATTGACAGCGTAGAATGAAGG
# DNA 2: CCTTCATTCTACGCTGTCAATCGCAAACGGTGTATACTCCCCTCGTCGACCTTTCGATGC
# B7: NRC3_wobSeed100_DR4_A14C_o1 (dsDNA)
# DNA 1: GCCCTACTGGGCCCCGAAAGGTCATTGATTCAGTGAGCGATTGACAGCGTAGAATGAAGG
# DNA 2: CCTTCATTCTACGCTGTCAATCGCTCACTGAATCAATGACCTTTCGGGGCCCAGTAGGGC
# B8: NRC3_wobSeed22_DR0_T25C_o1 (dsDNA)
# DNA 1: GCTTACCAAGGTGAAGGTCGTTGACCCCTCTGTAGAGCGATTGACAGCGTAGAATGAAGG
# DNA 2: CCTTCATTCTACGCTGTCAATCGCTCTACAGAGGGGTCAACGACCTTCACCTTGGTAAGC
# B9: NRC3_wobSeed122_DR5_C28A_o1 (dsDNA)
# DNA 1: GCGCTAGTTGGTCAGTAAAAGGTCACAAACCGGTCGGCGATTGACAGCGTAGAATGAAGG
# DNA 2: CCTTCATTCTACGCTGTCAATCGCCGACCGGTTTGTGACCTTTTACTGACCAACTAGCGC
# B10: NRC3_wobSeed133_DR5_G21T_o1 (dsDNA)
# DNA 1: GCCGTCCAAGGTCAATGCTATGTCAGTGAAAGCATTGCGATTGACAGCGTAGAATGAAGG
# DNA 2: CCTTCATTCTACGCTGTCAATCGCAATGCTTTCACTGACATAGCATTGACCTTGGACGGC
# B11: NRC3_wobSeed50_DR2_G7A_o1 (dsDNA)
# DNA 1: GCCCTAATTGGTCAGGAGGTCACACACCGGATATGAGCGATTGACAGCGTAGAATGAAGG
# DNA 2: CCTTCATTCTACGCTGTCAATCGCTCATATCCGGTGTGTGACCTCCTGACCAATTAGGGC
# B12: NRC3_wobSeed41_DR1_C24G_o1 (dsDNA)
# DNA 1: GCATATGTAGGTTAAGGGTCATTGAGGTTGGTTCGCGCGATTGACAGCGTAGAATGAAGG
# DNA 2: CCTTCATTCTACGCTGTCAATCGCGCGAACCAACCTCAATGACCCTTAACCTACATATGC
# B13: NRC3_wobSeed98_DR4_T12C_o1 (dsDNA)
# DNA 1: GCACTAGTTGGCCAGCTGAGGTCACACACAATTCGGGCGATTGACAGCGTAGAATGAAGG
# DNA 2: CCTTCATTCTACGCTGTCAATCGCCCGAATTGTGTGTGACCTCAGCTGGCCAACTAGTGC
# B14: NRC3_wobSeed137_DR5_A14T_o1 (dsDNA)
# DNA 1: GCATATGTAGGTTTCATCCGGGTCATTCAGGCTATGGCGATTGACAGCGTAGAATGAAGG
# DNA 2: CCTTCATTCTACGCTGTCAATCGCCATAGCCTGAATGACCCGGATGAAACCTACATATGC
# B15: NRC3_wobSeed2_DR0_A22T_o1 (dsDNA)
# DNA 1: GCCCTAGTTGGTCAAGGTCACTCACGCTATAGGTACGCGATTGACAGCGTAGAATGAAGG
# DNA 2: CCTTCATTCTACGCTGTCAATCGCGTACCTATAGCGTGAGTGACCTTGACCAACTAGGGC
# B16: NRC3_wobSeed124_DR5_C17T_o1 (dsDNA)
# DNA 1: GCCCTACTGGGCCATTTAGAGGTCATTGATCATATGGCGATTGACAGCGTAGAATGAAGG
# DNA 2: CCTTCATTCTACGCTGTCAATCGCCATATGATCAATGACCTCTAAATGGCCCAGTAGGGC
# B17: NRC3_wobSeed124_DR5_A29G_o1 (dsDNA)
# DNA 1: B16 DNA 1 with T17C, A29G
# DNA 2: B16 DNA 2 with T32C, A44G
# B18: NRC3_wobSeed5_DR0_C24G_o1 (dsDNA)
# DNA 1: GCCCTTACGGGTCAAGGTTATAGGACGGGTGGTACGGCGATTGACAGCGTAGAATGAAGG
# DNA 2: CCTTCATTCTACGCTGTCAATCGCCGTACCACCCGTCCTATAACCTTGACCCGTAAGGGC
# B19: NRC3_wobSeed21_DR0_T5A_o1 (dsDNA)
# DNA 1: GCCGACAAAGTTCAAGGTAACGTAACAGAAAGCAGCGCGATTGACAGCGTAGAATGAAGG
# DNA 2: CCTTCATTCTACGCTGTCAATCGCGCTGCTTTCTGTTACGTTACCTTGAACTTTGTCGGC
# B20: NRC3_wobSeed69_DR2_T5A_o1 (dsDNA)
# DNA 1: GCAGACAAAGTTCACTAGGTAACGTAAGATTCAGCTGCGATTGACAGCGTAGAATGAAGG
# DNA 2: CCTTCATTCTACGCTGTCAATCGCAGCTGAATCTTACGTTACCTAGTGAACTTTGTCTGC
# B21: NRC3_wobSeed69_DR2_C6G_o1 (dsDNA)
# DNA 1: B20 DNA 1 with A5T, C6G
# DNA 2: B20 DNA 2 with G55C, T56A
# B22: NRC3_wobSeed119_DR4_C7A_o1 (dsDNA)
# DNA 1: GCGGAAAGAGGGCATTCGAGTTGATAGCATGGCGATGCGATTGACAGCGTAGAATGAAGG
# DNA 2: CCTTCATTCTACGCTGTCAATCGCATCGCCATGCTATCAACTCGAATGCCCTCTTTCCGC
# B23: NRC3_wobSeed119_DR4_G27A_o1 (dsDNA)
# DNA 1: B22 DNA 1 with A7C, G27A
# DNA 2: B22 DNA 2 with C34T, T54G
# B24: NRC3_wobSeed74_DR3_G20T_o1 (dsDNA)
# DNA 1: GCTCTAGTTGGTCACGGAGTTCACACACGACGGGTAGCGATTGACAGCGTAGAATGAAGG
# DNA 2: CCTTCATTCTACGCTGTCAATCGCTACCCGTCGTGTGTGAACTCCGTGACCAACTAGAGC
# B25: NRC3_wobSeed74_DR3_A14C_o1 (dsDNA)
# DNA 1: B24 DNA 1 with A14C, T20G
# DNA 2: B24 DNA 2 with A41C, T47G
# B26: NRC3_wobSeed61_DR2_T24G_o1 (dsDNA)
# DNA 1: GCCGTCCAAGGTCAGCAGGTCAGGGAAAGCGACGTGGCGATTGACAGCGTAGAATGAAGG
# DNA 2: CCTTCATTCTACGCTGTCAATCGCCACGTCGCTTTCCCTGACCTGCTGACCTTGGACGGC
# B27: NRC3_wobSeed61_DR2_G25A_o1 (dsDNA)
# DNA 1: B26 DNA 1 with G24T, G25A
# DNA 2: B26 DNA 2 with C36T, C37A
# B28: NRC3_wobSeed61_DR2_G4C_o1 (dsDNA)
# DNA 1: B26 DNA 1 with G4C, G24T
# DNA 2: B26 DNA 2 with C37A, C57G
# B29: NRC3_wobSeed61_DR2_o1 (dsDNA)
# DNA 1: B26 DNA 1 with G24T
# DNA 2: B26 DNA 2 with C37A
# B30: NRC3_wobSeed101_DR4_o1 (dsDNA)
# DNA 1: GCCCTTACGGGTCACTCCAGGTTATAGCATCGGAGTGCGATTGACAGCGTAGAATGAAGG
# DNA 2: CCTTCATTCTACGCTGTCAATCGCACTCCGATGCTATAACCTGGAGTGACCCGTAAGGGC
# B31: NRC3_wobSeed72_DR2_A6C_o1 (dsDNA)
# DNA 1: GCTCGCGTAGGTTACGGGGGCATTCAGGGATGAAGAGCGATTGACAGCGTAGAATGAAGG
# DNA 2: CCTTCATTCTACGCTGTCAATCGCTCTTCATCCCTGAATGCCCCCGTAACCTACGCGAGC
# B32: NRC3_wobSeed66_DR2_o1 (dsDNA)
# DNA 1: GCAATACAGGGTCACTAGGCCAGAGTAGGTACGAATGCGATTGACAGCGTAGAATGAAGG
# DNA 2: CCTTCATTCTACGCTGTCAATCGCATTCGTACCTACTCTGGCCTAGTGACCCTGTATTGC
# B33: NRC3_wobSeed66_DR2_G9A_o1 (dsDNA)
# DNA 1: B32 DNA 1 with G9A
# DNA 2: B32 DNA 2 with C52T
# B34: NRC3_wobSeed27_DR1_G7C_o1 (dsDNA)
# DNA 1: GCACTCCGAGGACAAAGGTCAGAGCTACGCCAGTGAGCGATTGACAGCGTAGAATGAAGG
# DNA 2: CCTTCATTCTACGCTGTCAATCGCTCACTGGCGTAGCTCTGACCTTTGTCCTCGGAGTGC
# Molecular target: VDR:RXRa (Homo sapiens, UniProt P11473;P19793 full;full)
# Assay: no ligand; PBM; 270 nM : 90 nM RXRa; PBS pH 7.4, 2% milk, 0.02% Triton X-100, 1 mM DTT, BSA, 0.4 mg/ml salmon testes DNA
# Conditions: tags: His kept;His cleaved; copies: 1;1; label: surface-attached array probe
# Method in brief: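 Custom Agilent 4×180K protein-binding microarrays carried double-stranded probes. Their 34-nt variable regions held direct-repeat seeds, single-nucleotide variants, half-site ablations and random human genomic background sequences. Arrays were incubated 1 h with ligand-free nuclear receptor dimers in PBS pH 7.4, 2% milk, 0.02% Triton X-100, 1 mM DTT, 0.2 mg/mL BSA and 0.4 mg/ml salmon testes DNA. Antibodies against each partner (one per run) detected binding, and scanned fluorescence was regression-normalized. Binding z-scores use random background probes as reference.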
# Chain of VDR:RXRa (P11473 whole entry, chain 1 of 2): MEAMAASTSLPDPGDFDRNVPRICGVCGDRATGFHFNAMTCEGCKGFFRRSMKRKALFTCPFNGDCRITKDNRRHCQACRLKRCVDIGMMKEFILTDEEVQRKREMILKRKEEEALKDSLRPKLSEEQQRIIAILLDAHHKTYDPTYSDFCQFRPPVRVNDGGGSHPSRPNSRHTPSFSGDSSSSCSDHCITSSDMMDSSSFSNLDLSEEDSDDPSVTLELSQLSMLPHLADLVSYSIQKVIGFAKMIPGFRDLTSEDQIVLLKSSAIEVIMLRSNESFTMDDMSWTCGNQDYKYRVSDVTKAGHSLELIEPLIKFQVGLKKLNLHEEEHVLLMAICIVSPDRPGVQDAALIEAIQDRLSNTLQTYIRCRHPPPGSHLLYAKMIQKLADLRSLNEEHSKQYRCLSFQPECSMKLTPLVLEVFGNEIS
# Chain of VDR:RXRa (P19793 whole entry, chain 2 of 2): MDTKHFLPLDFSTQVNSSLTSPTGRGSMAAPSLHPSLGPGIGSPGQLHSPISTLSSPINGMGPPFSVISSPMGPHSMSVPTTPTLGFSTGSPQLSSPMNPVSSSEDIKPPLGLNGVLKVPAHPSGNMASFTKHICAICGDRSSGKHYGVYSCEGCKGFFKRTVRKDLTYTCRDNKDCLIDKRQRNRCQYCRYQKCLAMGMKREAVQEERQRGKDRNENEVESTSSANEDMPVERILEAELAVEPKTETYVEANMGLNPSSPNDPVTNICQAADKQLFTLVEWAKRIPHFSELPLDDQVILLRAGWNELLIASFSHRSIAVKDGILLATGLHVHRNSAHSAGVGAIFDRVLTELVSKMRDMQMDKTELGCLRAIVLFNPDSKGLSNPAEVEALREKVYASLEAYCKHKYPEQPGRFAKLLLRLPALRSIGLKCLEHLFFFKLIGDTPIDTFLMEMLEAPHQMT
row,Binder,binding signal
1,B1,3.78 PBM z-score against 500 random probes
2,B2,3.4 PBM z-score against 500 random probes
3,B3,3.38 PBM z-score against 500 random probes
4,B4,3.47 PBM z-score against 500 random probes
5,B5,3.58 PBM z-score against 500 random probes
6,B6,3.65 PBM z-score against 500 random probes
7,B7,3.44 PBM z-score against 500 random probes
8,B8,4.04 PBM z-score against 500 random probes
9,B9,3.68 PBM z-score against 500 random probes
10,B10,3.76 PBM z-score against 500 random probes
11,B11,3.96 PBM z-score against 500 random probes
12,B12,6.5 PBM z-score against 500 random probes
13,B13,3.6 PBM z-score against 500 random probes
14,B14,3.52 PBM z-score against 500 random probes
15,B15,3.83 PBM z-score against 500 random probes
16,B16,3.9 PBM z-score against 500 random probes
17,B17,3.87 PBM z-score against 500 random probes

row,Binder,binding signal
1,B18,3.5 PBM z-score against 500 random probes
2,B19,3.74 PBM z-score against 500 random probes
3,B20,3.85 PBM z-score against 500 random probes
4,B21,3.33 PBM z-score against 500 random probes
5,B22,4.08 PBM z-score against 500 random probes
6,B23,3.42 PBM z-score against 500 random probes
7,B24,6.57 PBM z-score against 500 random probes
8,B25,3.63 PBM z-score against 500 random probes
9,B26,4.03 PBM z-score against 500 random probes
10,B27,4 PBM z-score against 500 random probes
11,B28,3.8 PBM z-score against 500 random probes
12,B29,3.97 PBM z-score against 500 random probes
13,B30,4.06 PBM z-score against 500 random probes
14,B31,3.92 PBM z-score against 500 random probes
15,B32,4.15 PBM z-score against 500 random probes
16,B33,4.1 PBM z-score against 500 random probes
17,B34,3.7 PBM z-score against 500 random probes
